Patent US20160145645

What was measured:
Test in all cases: cell_activity
[1] = system: hSIRT ZFN pair (artificial); conditions: ZFN activity of the pair; assay conditions not given
[2] = system: ZFN pair targeting CHO NW_003618207.1 (artificial); conditions: indels in CHO K1 3 days post transfection, CEL-I or sequencing
[3] = system: ZFN pair targeting CHO Neu3 (artificial); conditions: indels in CHO K1 3 days post transfection, CEL-I or sequencing
[4] = system: ZFN pair targeting CHO Rosa26 (artificial); conditions: indels in CHO K1 3 days post transfection, CEL-I or sequencing
[5] = system: hRSK4 ZFN pair (artificial); conditions: ZFN activity of the pair; assay conditions not given

Q: “ATCTTGCCTGATTTGTAAATACAAAGTTGACTGTGAA (double strand) [hSIRT ZFN recognition sequence]” was tested. Which activity [1] did it give?
A: 16.7%

Q: With CHO NW_003618207.1 bp 12931-12970 as the substance, how does the activity [2] read?
A: 16%

Q: CHO Neu3 locus was tested. Which activity [3] did it give?
A: 41%

Q: For CHO Rosa26 locus, which activity [4] is on record?
A: 31%

Q: “GGCTCCTACTCTGTTTGCAAGCGATGCATACATGCAA (double strand) [hRSK4 ZFN recognition sequence]” was tested. Which activity [5] did it give?
A: 65.7%
